{
  "source": "patent US20170183380A1",
  "about": "(published 2017)",
  "binders": {"B1": {"name": "LTVSPWY (SEQ ID NO: 1) peptide-liposome, post inserted liposome 25 Ligand (peptide)", "peptide": "C(Maleimide‑PEG2000‑DSPE)GGGLTVSPWY", "modifications": "not fully specified; also: order of spacer and peptide assumed"}, "B2": {"name": "LTVSPWY (SEQ ID NO: 1) peptide-liposome, post inserted liposome 100 Ligand (peptide)", "peptide": "C(Maleimide‑PEG2000‑DSPE)GGGLTVSPWY", "modifications": "not fully specified; also: order of spacer and peptide assumed"}, "B3": {"name": "LTVSPWY (SEQ ID NO: 1) peptide-liposome, post inserted liposome 200 Ligand (peptide)", "peptide": "C(Maleimide‑PEG2000‑DSPE)GGGLTVSPWY", "modifications": "not fully specified; also: order of spacer and peptide assumed"}, "B4": {"name": "LTVSPWY (SEQ ID NO: 1) peptide-liposome, post inserted liposome 50 Ligand (peptide)", "peptide": "C(Maleimide‑PEG2000‑DSPE)GGGLTVSPWY", "modifications": "not fully specified; also: order of spacer and peptide assumed"}},
  "note": "Where no end group is shown, it is not given here.",
  "data": [
    {"biological_target": "HER2 on HER2-overexpressing breast cancer cells (SK-Br-3: human cell line) (human, UniProt P04626 23-1255)", "assay": "cell-based or functional assay", "units": {"IC50 (cytotoxicity, MTT assay), SKBR3 cells, 3 hours": "µM", "IC50 (cytotoxicity, MTT assay), SKBR3 cells, 6 hours": "µM"}, "values": [
      {"binder": "B1", "IC50 (cytotoxicity, MTT assay), SKBR3 cells, 3 hours": 24.9, "IC50 (cytotoxicity, MTT assay), SKBR3 cells, 6 hours": 12.8},
      {"binder": "B2", "IC50 (cytotoxicity, MTT assay), SKBR3 cells, 3 hours": 17.9, "IC50 (cytotoxicity, MTT assay), SKBR3 cells, 6 hours": 6.07},
      {"binder": "B3", "IC50 (cytotoxicity, MTT assay), SKBR3 cells, 3 hours": 15.2, "IC50 (cytotoxicity, MTT assay), SKBR3 cells, 6 hours": 4.9},
      {"binder": "B4", "IC50 (cytotoxicity, MTT assay), SKBR3 cells, 3 hours": 21.5, "IC50 (cytotoxicity, MTT assay), SKBR3 cells, 6 hours": 10.4}
    ]},
    {"biological_target": "HER2 on TUBO cells (mice cell line), HER2-overexpressing (UniProt P06494 23-1257)", "sequence (P06494 23-1257)": "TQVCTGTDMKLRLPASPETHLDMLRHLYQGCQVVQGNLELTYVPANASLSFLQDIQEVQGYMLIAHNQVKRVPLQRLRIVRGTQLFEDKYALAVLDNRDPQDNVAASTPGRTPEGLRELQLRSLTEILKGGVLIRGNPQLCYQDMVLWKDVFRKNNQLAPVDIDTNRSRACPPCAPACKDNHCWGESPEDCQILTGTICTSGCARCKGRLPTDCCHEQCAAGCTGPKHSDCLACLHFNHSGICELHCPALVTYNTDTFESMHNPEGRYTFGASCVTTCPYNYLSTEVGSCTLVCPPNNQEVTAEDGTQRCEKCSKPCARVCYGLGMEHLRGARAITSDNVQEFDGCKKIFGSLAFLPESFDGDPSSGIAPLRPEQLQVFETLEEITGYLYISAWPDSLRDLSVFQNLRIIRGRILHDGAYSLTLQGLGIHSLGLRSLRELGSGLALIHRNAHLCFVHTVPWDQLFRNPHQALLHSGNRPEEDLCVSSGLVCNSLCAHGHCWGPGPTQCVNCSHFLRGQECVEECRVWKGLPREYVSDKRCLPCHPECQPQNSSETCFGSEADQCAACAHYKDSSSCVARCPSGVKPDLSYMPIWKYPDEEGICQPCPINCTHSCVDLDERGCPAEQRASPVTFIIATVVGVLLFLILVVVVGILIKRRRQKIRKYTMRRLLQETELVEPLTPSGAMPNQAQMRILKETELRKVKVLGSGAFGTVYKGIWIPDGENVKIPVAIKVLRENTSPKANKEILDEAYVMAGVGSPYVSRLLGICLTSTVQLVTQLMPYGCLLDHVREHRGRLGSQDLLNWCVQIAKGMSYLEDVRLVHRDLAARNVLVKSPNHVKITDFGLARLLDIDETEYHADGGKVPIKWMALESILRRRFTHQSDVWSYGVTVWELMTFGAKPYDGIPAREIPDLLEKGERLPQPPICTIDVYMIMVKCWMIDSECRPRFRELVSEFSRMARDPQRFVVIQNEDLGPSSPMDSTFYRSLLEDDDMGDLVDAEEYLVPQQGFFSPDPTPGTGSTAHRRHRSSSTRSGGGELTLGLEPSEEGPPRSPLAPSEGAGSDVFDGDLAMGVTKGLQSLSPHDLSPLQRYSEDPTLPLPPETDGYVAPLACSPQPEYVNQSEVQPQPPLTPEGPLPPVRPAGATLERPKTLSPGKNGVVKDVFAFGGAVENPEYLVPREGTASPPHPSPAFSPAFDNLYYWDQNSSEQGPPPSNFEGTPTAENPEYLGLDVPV", "assay": "cell-based or functional assay", "units": {"IC50 (cytotoxicity, MTT assay), TUBO cells, 3 hours": "µM", "IC50 (cytotoxicity, MTT assay), TUBO cells, 6 hours": "µM"}, "values": [
      {"binder": "B1", "IC50 (cytotoxicity, MTT assay), TUBO cells, 3 hours": 11.1, "IC50 (cytotoxicity, MTT assay), TUBO cells, 6 hours": 5.5},
      {"binder": "B2", "IC50 (cytotoxicity, MTT assay), TUBO cells, 3 hours": 8.08, "IC50 (cytotoxicity, MTT assay), TUBO cells, 6 hours": 3.9},
      {"binder": "B3", "IC50 (cytotoxicity, MTT assay), TUBO cells, 3 hours": 6.5, "IC50 (cytotoxicity, MTT assay), TUBO cells, 6 hours": 2.5},
      {"binder": "B4", "IC50 (cytotoxicity, MTT assay), TUBO cells, 3 hours": 9.7, "IC50 (cytotoxicity, MTT assay), TUBO cells, 6 hours": 4.6}
    ]}
  ]
}
